Reference: publication PMC5800781

Legend:
RAD51 = RAD51 (human, UniProt Q06609 1-339); experiment: single-molecule DNA curtain
RAD51;BRCA1;BARD1 = RAD51;BRCA1;BARD1 (human;human?;human?, UniProt Q06609;P38398;Q99728 1-339;1-1863;1-777, ||); experiment: single-molecule DNA curtain
BRCA1;BARD1 = BRCA1;BARD1 (human?;human?, UniProt P38398;Q99728 1-1863;1-777, |); experiment: EMSA
BARD1 124-270 = BARD1 124-270 (UniProt Q99728 124-270); experiment: EMSA
BRCA1 = BRCA1 (UniProt P38398 1-1863); experiment: Southwestern
BARD1 = BARD1 (UniProt Q99728 1-777); experiment: Southwestern
Sequence of BARD1 (Q99728 whole entry): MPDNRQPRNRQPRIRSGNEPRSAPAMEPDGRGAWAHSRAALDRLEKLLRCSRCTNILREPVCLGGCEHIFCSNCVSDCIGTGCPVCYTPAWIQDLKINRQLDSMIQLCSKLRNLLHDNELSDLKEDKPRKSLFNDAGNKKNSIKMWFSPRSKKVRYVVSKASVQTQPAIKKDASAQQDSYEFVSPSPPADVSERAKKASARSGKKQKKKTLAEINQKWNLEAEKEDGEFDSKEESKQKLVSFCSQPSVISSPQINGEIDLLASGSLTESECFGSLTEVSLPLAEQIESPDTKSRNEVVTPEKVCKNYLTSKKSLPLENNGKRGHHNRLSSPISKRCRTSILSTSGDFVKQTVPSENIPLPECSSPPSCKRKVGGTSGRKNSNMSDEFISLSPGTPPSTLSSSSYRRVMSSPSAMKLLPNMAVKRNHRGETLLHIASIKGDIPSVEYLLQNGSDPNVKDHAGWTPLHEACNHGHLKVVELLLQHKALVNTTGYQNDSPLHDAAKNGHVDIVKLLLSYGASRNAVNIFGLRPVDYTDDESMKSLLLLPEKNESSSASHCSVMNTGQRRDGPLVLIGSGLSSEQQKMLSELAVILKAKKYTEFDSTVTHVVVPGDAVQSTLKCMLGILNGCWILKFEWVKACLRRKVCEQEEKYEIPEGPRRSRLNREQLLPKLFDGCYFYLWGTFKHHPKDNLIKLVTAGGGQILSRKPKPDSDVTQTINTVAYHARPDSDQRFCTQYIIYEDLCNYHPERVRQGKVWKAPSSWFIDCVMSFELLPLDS

Sequence of BARD1 124-270 (Q99728 124-270): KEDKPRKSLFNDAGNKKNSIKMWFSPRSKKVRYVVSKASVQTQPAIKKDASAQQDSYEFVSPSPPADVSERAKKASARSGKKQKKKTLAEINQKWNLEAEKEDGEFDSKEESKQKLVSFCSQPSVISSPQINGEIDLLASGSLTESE
Sequence of RAD51 (Q06609 whole entry): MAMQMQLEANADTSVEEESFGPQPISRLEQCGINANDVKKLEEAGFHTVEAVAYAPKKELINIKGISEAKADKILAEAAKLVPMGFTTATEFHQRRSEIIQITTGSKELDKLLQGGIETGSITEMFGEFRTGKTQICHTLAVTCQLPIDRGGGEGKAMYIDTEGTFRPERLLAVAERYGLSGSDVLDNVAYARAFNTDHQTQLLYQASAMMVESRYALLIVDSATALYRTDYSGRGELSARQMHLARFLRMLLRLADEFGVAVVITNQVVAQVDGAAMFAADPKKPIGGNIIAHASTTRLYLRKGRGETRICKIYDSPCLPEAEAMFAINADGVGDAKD

B1: Atto565 dsDNA 70 bp with 9-nt homology (dsDNA)
DNA 1: CCGGAGGCCTTAGGCCTTAGGCCTTAGGCCTTCAGCTGTTAGCCTTAGCTAGCTAGCTAGCTAGCTAGCT
DNA 2: AGCTAGCTAGCTAGCTAGCTAGCTAAGGCTAACAGCTGAAGGCCTAAGGCCTAAGGCCTAAGGCCTCCGG
**Q.** Does B1 bind (RAD51)?
**A.** Result: binds

**Q.** Does B1 bind (RAD51;BRCA1;BARD1)?
**A.** Result: binds

B2: replication fork (RF) (mixed)
DNA 1: GACGCTGCCGAATTCTACCAGTGCCTTGCTAGGACATCTTTGCCCACCTGCAGGTTCACCC
DNA 2: GGACATCTTTGCCCACCTGCAGGTTCACCC
DNA 3: TGGGTGAACCTGCAGGTGGGCAAAGATGTCC
DNA 4: GGGTGAACCTGCAGGTGGGCAAAGATGTCCCAGCAAGGCACTGGTAGAATTCGGCAGCGTC
**Q.** Does B2 bind (BRCA1;BARD1)?
**A.** Result: binds

B3: D-loop (mixed)
DNA 1: CATTGCATATTTAAAACATGTTGGAAGGCTCGATGCATGCTGATAGCCTACTAGTGCTGCTGGCTTTCAAATGACCTCTTATCAAGTGAC
DNA 2: GTCACTTGATAAGAGGTCATTTGAATTCATGGCTTAGAGCTTAATTGCTGAATCTGGTGCTGGGATCCAACATGTTTTAAATATGCAATG
DNA 3: CTGCTACGATGCTAGTCGTAGCTCGGCAGTCGTAGCAGGTTCCCAGCACCAGATTCAGCAATTAAGCTCTAAGCCATGAA
**Q.** Which results are given for B3?
**A.** binding result (BARD1 124-270): binds; binding result (BRCA1;BARD1): binds; binding result (BRCA1): binds; binding result (BARD1): binds

B4: DNA bubble (mixed)
DNA 1: B3 DNA 1
DNA 2: B3 DNA 2
**Q.** Which results are given for B4?
**A.** binding result (BARD1 124-270): binds; binding result (BRCA1;BARD1): binds
